Literature values, collected in paper PMC10742149.

Target: SIRP-α (Homo sapiens) (UniProt P78324)
UniProt P78324, sequence (P78324 31-373): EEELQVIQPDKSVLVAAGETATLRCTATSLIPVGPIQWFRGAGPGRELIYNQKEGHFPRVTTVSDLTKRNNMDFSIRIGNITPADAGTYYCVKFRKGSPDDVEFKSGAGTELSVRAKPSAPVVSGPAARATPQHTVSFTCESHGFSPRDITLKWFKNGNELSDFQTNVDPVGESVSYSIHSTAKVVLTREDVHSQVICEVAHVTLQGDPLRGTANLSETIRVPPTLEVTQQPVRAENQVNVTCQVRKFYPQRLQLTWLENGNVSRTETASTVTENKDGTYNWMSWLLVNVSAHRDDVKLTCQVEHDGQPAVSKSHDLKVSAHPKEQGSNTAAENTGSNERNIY

Kd: 2000 nM
Substance: CD47 (from UniProt Q08722)
